The labels stand for the following.
B1: C2orf65 (parent)
chain: QLDWDELETNQQHFHALCHSLLVS
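Also: lentivirally expressed fusions sorted by FACS into six bins by GFP to DsRed ratio, PSI derived from sequencing read proportions per bin multiplied by bin number.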

The data set covers variants of B1. The experiment in a line: protein stability index of a GFP-peptide fusion (GPS, HEK-293T) (PSI 1-6); higher = more stable. Particulars: c terminus: a fixed tail appended.
Regarding QLDWDELETNQQHFHALCHSPLVS, the protein stability index amounted to 2.95.

As to QLDWDELETNQQHFHALCHSMLVS, the protein stability index came to 2.28.

Consider QLDWDELETNQQHFHALCHSKLVS, for which the protein stability index is 2.94.

With QLDWDELETNQQHFHALCHSYLVS, the protein stability index turned out to be 2.37.

Consider QLDWDELETNQQHFHALCHSCLVS, for which the protein stability index was 1.61.

For QLDWDELETNQQHFHALCHSFLVS, the protein stability index is 2.31.

As for QLDWDELETNQQHFHALCHSWLVS, the protein stability index stood at 2.22.

For the variant QLDWDELETNQQHFHALCHSSLVS, the protein stability index turned out to be 3.09.

As for QLDWDELETNQQHFHALCHSALVS, the protein stability index stood at 3.23.

Regarding QLDWDELETNQQHFHALCHSRLVS, the protein stability index stood at 3.15.

Turning to QLDWDELETNQQHFHALCHSTLVS, the protein stability index came out at 2.93.

In the case of QLDWDELETNQQHFHALCHSQLVS, the protein stability index was determined as 2.91.

Turning to QLDWDELETNQQHFHALCHSGLVS, the protein stability index was 3.04.

Turning to QLDWDELETNQQHFHALCHSVLVS, the protein stability index amounted to 3.04.

As to QLDWDELETNQQHFHALCHSHLVS, the protein stability index worked out at 2.87.

As for QLDWDELETNQQHFHALCHSNLVS, the protein stability index turned out to be 3.01.

As to QLDWDELETNQQHFHALCHSDLVS, the protein stability index stood at 3.83.

Regarding QLDWDELETNQQHFHALCHSELVS, the protein stability index is 3.87.

Turning to QLDWDELETNQQHFHALCHSILVS, the protein stability index came to 2.06.

On to QLDWDELETNQQHFCALCHSLLVS, for which the protein stability index was found to be 1.66.

Take QLDWDELETNQQHFGALCHSLLVS: the protein stability index was 2.48.

Regarding QLDWDELETNQQHFRALCHSLLVS, the protein stability index turned out to be 1.71.

Turning to QLDWDELETNQQHFSALCHSLLVS, the protein stability index turned out to be 1.85.

QLDWDELETNQQHFKALCHSLLVS: the protein stability index worked out at 2.42.

For the variant QLDWDELETNQQHFVALCHSLLVS, the protein stability index turned out to be 2.39.

As for QLDWDELETNQQHFDALCHSLLVS, the protein stability index came to 2.64.

Consider QLDWDELETNQQHFWALCHSLLVS, for which the protein stability index was 1.74.

Consider QLDWDELETNQQHFTALCHSLLVS, for which the protein stability index worked out at 2.28.

Turning to QLDWDELETNQQHFMALCHSLLVS, the protein stability index was 2.33.

Regarding QLDWDELETNQQHFFALCHSLLVS, the protein stability index is 1.36.

With QLDWDELETNQQHFEALCHSLLVS, the protein stability index came to 2.78.

On to QLDWDELETNQQHFLALCHSLLVS, for which the protein stability index came out at 1.61.

As to QLDWDELETNQQHFQALCHSLLVS, the protein stability index was found to be 1.72.

As for QLDWDELETNQQHFNALCHSLLVS, the protein stability index is 2.26.

With QLDWDELETNQQHFYALCHSLLVS, the protein stability index was 1.82.

As for QLDWDELETNQQHFPALCHSLLVS, the protein stability index worked out at 2.12.

For QLDWDELETNQQHFAALCHSLLVS, the protein stability index worked out at 1.92.

Regarding QLDWDELETNQQHFIALCHSLLVS, the protein stability index came out at 2.36.

As for QLDWDELETNQQHFHALCGSLLVS, the protein stability index amounted to 2.17.

On to QLDWDELETNQQHFHALCRSLLVS, for which the protein stability index came out at 1.94.

For the variant QLDWDELETNQQHFHALCVSLLVS, the protein stability index is 1.96.

On to QLDWDELETNQQHFHALCMSLLVS, for which the protein stability index was determined as 1.66.

For the variant QLDWDELETNQQHFHALCDSLLVS, the protein stability index stood at 2.94.

Consider QLDWDELETNQQHFHALCASLLVS, for which the protein stability index is 1.88.

As for QLDWDELETNQQHFHALCYSLLVS, the protein stability index was 1.94.

Take QLDWDELETNQQHFHALCLSLLVS: the protein stability index was determined as 1.04.

QLDWDELETNQQHFHALCNSLLVS: the protein stability index was 2.17.

QLDWDELETNQQHFHALCKSLLVS: the protein stability index was determined as 2.15.

For the variant QLDWDELETNQQHFHALCWSLLVS, the protein stability index turned out to be 1.04.

Take QLDWDELETNQQHFHALCFSLLVS: the protein stability index was determined as 1.69.

For the variant QLDWDELETNQQHFHALCTSLLVS, the protein stability index was found to be 2.02.

For the variant QLDWDELETNQQHFHALCCSLLVS, the protein stability index worked out at 2.21.

Regarding QLDWDELETNQQHFHALCSSLLVS, the protein stability index was determined as 2.07.

Turning to QLDWDELETNQQHFHALCPSLLVS, the protein stability index stood at 2.65.

With QLDWDELETNQQHFHALCQSLLVS, the protein stability index was 2.67.

Take QLDWDELETNQQHFHALCESLLVS: the protein stability index came out at 2.93.

Consider QLDWDELETNQQHFHALCISLLVS, for which the protein stability index came to 1.79.

For the variant QLDWDELETNQQHFHALCHSLQVS, the protein stability index turned out to be 2.81.

QLDWDELETNQQHFHALCHSLHVS: the protein stability index came out at 2.69.

Consider QLDWDELETNQQHFHALCHSLPVS, for which the protein stability index worked out at 3.16.

Consider QLDWDELETNQQHFHALCHSLVVS, for which the protein stability index was 2.34.

As for QLDWDELETNQQHFHALCHSLRVS, the protein stability index worked out at 2.96.

Take QLDWDELETNQQHFHALCHSLIVS: the protein stability index came out at 2.95.

On to QLDWDELETNQQHFHALCHSLCVS, for which the protein stability index was 2.58.

Take QLDWDELETNQQHFHALCHSLYVS: the protein stability index came to 2.44.

With QLDWDELETNQQHFHALCHSLWVS, the protein stability index was determined as 1.64.

Turning to QLDWDELETNQQHFHALCHSLKVS, the protein stability index stood at 2.37.

Take QLDWDELETNQQHFHALCHSLTVS: the protein stability index worked out at 3.08.

For the variant QLDWDELETNQQHFHALCHSLMVS, the protein stability index stood at 3.01.

Take QLDWDELETNQQHFHALCHSLEVS: the protein stability index is 3.38.

QLDWDELETNQQHFHALCHSLAVS: the protein stability index came to 3.29.

In the case of QLDWDELETNQQHFHALCHSLSVS, the protein stability index was 2.58.

As to QLDWDELETNQQHFHALCHSLFVS, the protein stability index worked out at 2.21.

Turning to QLDWDELETNQQHFHALCHSLDVS, the protein stability index is 3.77.

For the variant QLDWDELETNQQHFHALCHSLNVS, the protein stability index is 2.69.

Take QLDWDELETNQQHFHAFCHSLLVS: the protein stability index worked out at 1.9.

For QLDWDELETNQQHFHAECHSLLVS, the protein stability index came to 3.69.

Turning to QLDWDELETNQQHFHANCHSLLVS, the protein stability index stood at 3.12.

QLDWDELETNQQHFHAKCHSLLVS: the protein stability index was found to be 2.69.

Regarding QLDWDELETNQQHFHATCHSLLVS, the protein stability index was determined as 3.57.

As for QLDWDELETNQQHFHADCHSLLVS, the protein stability index is 4.07.

In the case of QLDWDELETNQQHFHAPCHSLLVS, the protein stability index came to 3.92.

Regarding QLDWDELETNQQHFHASCHSLLVS, the protein stability index amounted to 2.58.

With QLDWDELETNQQHFHACCHSLLVS, the protein stability index turned out to be 2.58.

For QLDWDELETNQQHFHAHCHSLLVS, the protein stability index is 2.6.

On to QLDWDELETNQQHFHAWCHSLLVS, for which the protein stability index turned out to be 2.21.

With QLDWDELETNQQHFHAVCHSLLVS, the protein stability index is 1.74.

For the variant QLDWDELETNQQHFHAMCHSLLVS, the protein stability index was 2.38.

Consider QLDWDELETNQQHFHAQCHSLLVS, for which the protein stability index was found to be 3.02.

As to QLDWDELETNQQHFHAYCHSLLVS, the protein stability index came to 2.05.

With QLDWDELETNQQHFHARCHSLLVS, the protein stability index stood at 2.68.

For the variant QLDWDELETNQQHFHAACHSLLVS, the protein stability index was 2.75.

With QLDWDELETNQQHFHAICHSLLVS, the protein stability index amounted to 2.14.

QLDWDELETNQQHFHAGCHSLLVS: the protein stability index came to 2.43.

For the origin of these results see the supplement of paper PMC10567573.
